± gives the uncertainty stated by the source.
Test: amyloid nucleation score (Sup35N fusion, yeast selection) (log enrichment); library NNK1; higher = more nucleation; inactive = no reads after selection
In short: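 In psi-negative yeast, Sup35N fusions carrying peptides of 20 random codons were induced with 100 μM copper sulfate for 24 hours. The cells then grew 7 days at 30°C on medium lacking adenine and uracil, and plasmid inserts from input and output were Illumina-sequenced, excluding sequences with under 100 input reads. Nucleation score is the DiMSum log enrichment of output over input reads, centred on the mode score of non-aggregating sequences.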

Substance	amyloid nucleation score
YLMLCTEIEPKRAGGGMSER	inactive
YLNERE	-1.16 ± 1
YLQFVRQRVCWLRLRPMMKA	-0.183 ± 0.56
YLSYDT	-0.411 ± 0.36
YLTGVYNWGMCKTCFPRDWG	2.65 ± 0.096
YMGPFVPFSRTTAYNVSTFK	0.42 ± 0.79
YMLRYVAWCLGPAL	0.459 ± 0.37
YMQGDYM	inactive
YMRSLFCISTQLSRAILVLP	0.478 ± 1
YMTQIMHKARRFNAWPAVMM	0.087 ± 0.3
YMYQIG	-0.691 ± 1.7
YNCLYDRPFRMMSQCLNIGM	-1.59 ± 1.2
YNELKFRGYYNRCLECGFVR	0.495 ± 0.91
YNKVDM	-0.316 ± 0.53
YNMVFWTKFSLSWLLCLHGK	5.86 ± 0.088
YNNSLWPIRLVRSKQCLSWT	0.215 ± 0.54
YNSEGDRLESNESWDWMARR	0.511 ± 0.57
YNTCECFSFLTCKWLNKMDG	2.79 ± 0.16
YNVVSSKNNTVRFVLFP	4.31 ± 0.12
YNYDPRFVY	-0.246 ± 0.28
YPGEGEPKKYLPYNRLCWRS	1.08 ± 0.69
YPGQARNRVLCCGWKFFIDQ	3.39 ± 0.15

Substance	amyloid nucleation score
YPGRWSSYRLEGSTKNARNG	inactive
YPLTSHYLLTR	0.038 ± 0.64
YPNHGLLRQ	0.166 ± 0.43
YPSDLLDIWDDWICWCWELN	0.225 ± 0.53
YQETPVNPEPVV	-0.01 ± 0.38
YQKDWFDMHEYYRPM	1.42 ± 0.64
YQTWRQWLLFACRVSECYDM	-0.508 ± 1.1
YQYNATFFPSITRTNLETKG	0.337 ± 0.49
YRDDYACFLRPYPARCG	-0.141 ± 0.92
YRFKFGVKWLAPNFLPAFGY	inactive
YRKFENGVSVIRFEVQCTLV	4.88 ± 0.072
YRLRGGP	-0.25 ± 1.2
YRRNIIL	-0.368 ± 0.4
YRTNRKEHSYVLLYARRPSQ	0.56 ± 0.72
YSFSISVYLLGLSCCCWMGE	6.08 ± 0.064
YSGVLFSTAVEYGGRGLVHE	inactive
YSIVFGWLRYRLDWMCLISL	0.055 ± 0.26
YSLLVHIFMLLWSYDCLTVT	-1.54 ± 2.7
YSLSPTKLGFSERLDSNEVV	0.225 ± 0.62
YSQYVVTSFTSLREVS	-0.332 ± 0.25
YSRGCTFYAKGELRDNGSYY	-0.168 ± 0.48
YSSRIVRVSVRRVIHQSLRS	1.41 ± 0.52

Substance	amyloid nucleation score
YSSVDDGGDQHRGLSKAGHN	-0.525 ± 0.64
YSVSWQLFGIDVCTFVTVRS	0.367 ± 0.52
YSWTVAKIFTYFSVQLSIFR	-0.396 ± 0.33
YSYGCCSMLNVVS	1.93 ± 0.2
YTFQIILNSVPWYFCAMLWE	5.54 ± 0.1
YTMFLPFRLR	0.376 ± 0.8
YTRVLILNENATAIIWSE	1.87 ± 0.4
YTVRLM	0.125 ± 0.61
YTVSNQLLSRLRGVQHNKLK	-1.11 ± 0.92
YTVSTRWRGVNIPYVKHAAL	0.499 ± 0.25
YTVTCYCGSDTWSKMLAKVF	-1.16 ± 2.4
YTWQYAYLCQVMTSFYSGSI	-0.269 ± 0.47
YVADGLKDKQRCSACFDASS	4.93 ± 0.063
YVEKVSFTAIEWWRGQLQSV	0.565 ± 0.47
YVMQSATDVETSNSGIS	0.525 ± 0.84
YVPGSRLRPYLIQSFNNSLY	2.81 ± 0.19
YVPSRSGYIDFAGRNNRYSI	-0.401 ± 0.73
YVQLLMVHNAMYRSAGIFSY	0.572 ± 0.56
YVRWMSLAPSVQWH	1.11 ± 0.19
YVSDFKADTATLSSDLCQLA	-0.183 ± 0.73
YVTVEIMGYVTKVVTITLW	-0.419 ± 0.44
YVYRFNFLNFVW	1.93 ± 0.12

Substance	amyloid nucleation score
YWDKNFHYMCVARLFIVRLC	0.091 ± 0.7
YWDYNNFRFFLRKLSFISRL	0.822 ± 1
YWFDYINPLMRSFAHATAIS	0.74 ± 0.9
YWGLQPFMIY	0.272 ± 0.74
YWGTS	0.971 ± 0.49
YWTALTFSHY	0.486 ± 0.82
YYFILYGSVNQHRTSIFRAR	5.08 ± 0.059
YYHRSNTLLSIYVSKLLTNN	-0.183 ± 1.2
YYIEVLILCWACQNALSRAS	0.5 ± 0.9
YYKYKLLLIKLVLGGAGRPV	-0.054 ± 0.56
YYPGSGFH	-0.531 ± 0.65
YYSGGFIMVVHLWSVELRFR	0.23 ± 0.9
YYTVLLRS	-0.453 ± 0.52
YYTYDGVGSLICTCRFTRVV	-0.356 ± 0.49
YYVDV	-0.034 ± 0.88
YYVFITIYVVSLVCNLSCYF	-0.573 ± 0.74
YYVGSYTL	inactive
YYVLFNAFQLIPLGWGNYS	inactive
YYVVVFVANAVFPQYPDPRN	7.21 ± 0.055
YYWCAHPSCYPSVY	0.878 ± 0.58

— the supplement of paper PMC12042874
